Data reported in the DeepSol protein solubility set.

experiment: soluble on expression in E. coli; label from the status in PepcDB or PDB records

Soluble on expression in E. coli, soluble:
IVRACRFMAERQIGALIVIERQQNIEDLIEGCIYLDAYITAELIITIFYPLTPLHDGAVVIRDDRIAFASCVLPLSKNPELPKKYGTRHRAAVGITEMSDAVAIVVSEETGEISVAVEGNI

Soluble on expression in E. coli, not soluble:
MGSDKIHHHHHHMENYQLRIAHLYGDLMNTYGDYGNVIAIKYYAKQIQVETDYHLISLGDSFKADDYDFVIFGGGQDYEESVTAKDLPSKSDEIKKYIENNDSLLAVCGGFQLLGTTMEFANGKIINGIGAMSHHTVNLNSSELFDNMRGKRLIGNIQIKNNESGETYHGFENHQGRTFLGKGEKALGTVVSGNGNNGDDKTEGVIYKQVYGTYFHGPILTRNGNLAKRILKNALLKRYPDIDWQAKLDGIPTESF, MGSDKIHHHHHHMTQEQTRPKHMAAGETPEQHAAFEARIARGEKIEPGDWMPAEYRRQLIRMISQHAHSEVVGMLPEGEWIARAPSLKRKTILMAKVQDEAGHGQYLYHAAETLGVTREEMLDALLTRKAKYSSIFNYPTLTWADVGMIGWLVDGAAIKNQTMLAGCSYGPYSRAMVRICSEETFHHKQGKEMMVLYAQGTPEQRQMAQDALNRWWWPAVQMLGPHDSDSPNTGALSKWGIKLKTNDEVRQEFINEHVPELLEAGLTIPDPDLHQDEAGNWVHGPIDWSEFWAVIKGEQGLGNERLATRQAAQDEGAWVREALEAYMARQAKGEAAD, MAHHHHHHMNQVIRSRTDWKERVVLRLAWITASRWSEIAALTPNNLKLKTDGTLILYWPVAPKTARTDPHRASRFVRIRGQDAFDIIKLCRTLQHIEKLTNLTTARVERALAPWNATAHSIRRGALRHAAQIVEAYNLNPHVISQLAKHVDPFDLPQNTVRYLGNCTTMLTQVLSLVALM, MPEKYTTPYPARRIHSDGRAEDTEVLLAKECPVKLFLDGKQFTTLFASPLELKELAVGHLITEGILSFKEIAGVEVEGNEVHILTLKGKHPIQDESSRPAGGETKKQIFVNSDAVFDPEALFEGIAYLESDTYKLTRGTHLAALIDKKGKLAVQIVDVGRHNAVDKVVGAAFLRMIDLSQHYMLSTGRQPAYMVTKAARAGIPLVATKAMPFDSGVEAAKKANLCLVGQLRKESMLVFTNEWRVRIAAALEHHHHHH, MGSDKIHHHHHHMAKDIIKLGDVATYINGYAFKPEDRGEEGLQIIRIQDLTGNSYDLGFYNGKYPKKIEINDGDVLISWSASLGVYVWNGGKALLNQHIFKVKFDKVDIDKSYFVYAVRYKLNDMGKKTHGATMKHIVKRDFDATEIPYPPLKKQIEIAINLDKVLMVIKERKRELKLLDELIKARFVEMFGDCTNMISLSDLCLIITDGTHQSPKFQHEGIPFILVSNLSKNTVTYDTDKFISAETYKELYKRTPIEIGDILLSTVGSYGHPAVVVEDRKFLFQRHIAYLKPKSDILNSYYMHGALLSPGCQRQIEEKVKGIAQKTLNLSEIRKIRIPVPSLDLQKQYADFVHQVNKSKVAVQKALDETQILFDSLMQKYFG, MGSDKIHHHHHHVSSTIWTPTAVASEAAAIRFSLWRAVEGQHAVSTMVLVDSLEEQALLEQLLEGSKPPVPASANGLHWLLFTPFRYPPPPTGSRFRGPLDPGVFYGADEIETACAELGFWRWQFLMESPSLTALDPKPQTVFKVEVDTLTVDLRSPPFTESRALWIDPKSYAATQDLARSAREANIGAIRYESVRAPNRGGCGAILTPMAFAEPQPRDAQTWWLSVSRERVLWQRDDVLQRATFAFDTKAFCE, MFMEFSAGLMPLETALTQMLSRITPLTAVETLPLVNCFGRILATDIVSPLDVPGFDNSAMDGYAVRVADLSADKPLPVAGKAFAGQPYQGEWPAGTCIRIMTGAPVPAGCEAVVMQEQTEQTDDGVRFTADVRCGQNIRRRGEDIRQDAVVFPAGTRLTTAELPVLASLGIADAQVVRKVRVALFSTGDELQLPGQPLEAGQIYDTNRLTIHLMLQQLGCEVINLGIIPDDPGKLRAAFIDADSQADVVISSGGVSVGEADYTKTILEELGEIAFWKLAIKPGKPFAFGKLSNSWFCGLPGNPVSAALTFYQLVQPLLAKLGGNTASAVPPRQRVRTASRLKKTPGRLDFQRGILQRSANGELEVTTTGHQGSHIFSSFSLGNCFIVLERERGNVEPGEWVEVEPFNALFGGL, MTDSDGKIVWETGYQVWGNTIQEKDHGGVEQNLRYQGQYLDRETGLHYNLHRYYDPDVGRFMVTDPIGLRGGLNLYSYAPNPLKYADPLGLTPCAVSNQKANRLLDSSETKVTVRSRSDAEQLFMDRYLGHNYKNMTGESGPSTKNLMEYLTENKTKAGSYHWDDIKDPSVTKPSYRVSGHGPGNPDGDLPHLQVHQHGGSVRHIFFPWETLEHHHHHH
